From article PMC10277290 come the findings set out here.

B1: MdhBs (NAD+-dependent methanol dehydrogenase) (Geobacillus stearothermophilus) (protein)
chain: MKAAVVNEFKKALEIKEVERPKLEEGEVLVKIEACGVCHTDLHAAHGDWPIKPKLPLIPGHEGVGIVVEVAKGVKSIKVGDRVGIPWLYSACGECEYCLTGQETLCPHQLNGGYSVDGGYAEYCKAPADYVAKIPDNLDPVEVAPILCAGVTTYKALKVSGARPGEWVAIYGIGGLGHIALQYAKAMGLNVVAVDISDEKSKLAKDLGADIAINGLKEDPVKAIHDQVGGVHAAISVAVNKKAFEQAYQSVKRGGTLVVVGLPNADLPIPIFDTVLNGVSVKGSIVGTRKDMQEALDFAARGKVRPIVETAELEEINEVFERMEKGKINGRIVLKLKED
B2: MdhBs (NAD+-dependent methanol dehydrogenase) (Geobacillus stearothermophilus; E309K/N214D) (protein)
chain: MKAAVVNEFKKALEIKEVERPKLEEGEVLVKIEACGVCHTDLHAAHGDWPIKPKLPLIPGHEGVGIVVEVAKGVKSIKVGDRVGIPWLYSACGECEYCLTGQETLCPHQLNGGYSVDGGYAEYCKAPADYVAKIPDNLDPVEVAPILCAGVTTYKALKVSGARPGEWVAIYGIGGLGHIALQYAKAMGLNVVAVDISDEKSKLAKDLGADIAIDGLKEDPVKAIHDQVGGVHAAISVAVNKKAFEQAYQSVKRGGTLVVVGLPNADLPIPIFDTVLNGVSVKGSIVGTRKDMQEALDFAARGKVRPIVKTAELEEINEVFERMEKGKINGRIVLKLKED
B3: MdhBs (NAD+-dependent methanol dehydrogenase) (Geobacillus stearothermophilus; K72T/T153P) (protein)
chain: MKAAVVNEFKKALEIKEVERPKLEEGEVLVKIEACGVCHTDLHAAHGDWPIKPKLPLIPGHEGVGIVVEVATGVKSIKVGDRVGIPWLYSACGECEYCLTGQETLCPHQLNGGYSVDGGYAEYCKAPADYVAKIPDNLDPVEVAPILCAGVTPYKALKVSGARPGEWVAIYGIGGLGHIALQYAKAMGLNVVAVDISDEKSKLAKDLGADIAINGLKEDPVKAIHDQVGGVHAAISVAVNKKAFEQAYQSVKRGGTLVVVGLPNADLPIPIFDTVLNGVSVKGSIVGTRKDMQEALDFAARGKVRPIVETAELEEINEVFERMEKGKINGRIVLKLKED

Substrate in the series: CO
Nature of the series: purified protein. Format: biochemical, Geobacillus stearothermophilus. As to conditions: NAD+ 0.5 mM, Mg2+ 5 mM, PBS pH 7.4, 37 °C.
As to B1, the Michaelis constant (Km) is 30.03 ± 4.63 mM, the maximal velocity (Vmax) is 0.0115 µmol/min/mg, the turnover number (kcat) is 0.007 ± 0.001 s⁻¹ and the specificity constant (kcat/Km) stood at 0.233 M⁻¹ s⁻¹.
For the protein B2, the Km worked out at 18.19 ± 3.27 mM, the Vmax is 0.0238 µmol/min/mg, the kcat is 0.013 ± 0.001 s⁻¹ and the kcat/Km was found to be 0.715 M⁻¹ s⁻¹.
B3: the Km is recorded as 9.84 ± 0.67 mM, the maximum rate (Vmax) turned out to be 0.0288 µmol/min/mg, the kcat is 0.015 ± 0.001 s⁻¹ and the kcat/Km turned out to be 1.52 M⁻¹ s⁻¹.

The Km is the substrate concentration at which the rate is half of its maximum. The term Vmax denotes the rate approached at saturating substrate. For orientation: kcat means the number of substrate molecules converted per active site and unit of time at saturation. As a reminder, the kcat/Km is the second-order rate constant that governs catalysis at low substrate concentration.
